# Numbered stars: 1 amine (or outer) side, 2 acyl side, 3 side chain; on linkers, the order of the positions; unused ones are H or OH. Bridge positions count the residues as written; N and C are the ends. Side chains are listed from the residue outwards. Ends that are not written are not given here. * marks the point of attachment. C20 diacid = O=C(O)CCCCCCCCCCCCCCCCCCC(=O)*; γGlu = O=C(O)[C@H](CCC(=O)[*:2])N[*:1]; AEEA = NCCOCCOCC(=O)O
# T1: human calcitonin receptor (human, UniProt P30988 25-474)
# T1 construct: whole, on cells; Used as cell membranes; also called hCTR; hCT
# T1 sequence (looked up): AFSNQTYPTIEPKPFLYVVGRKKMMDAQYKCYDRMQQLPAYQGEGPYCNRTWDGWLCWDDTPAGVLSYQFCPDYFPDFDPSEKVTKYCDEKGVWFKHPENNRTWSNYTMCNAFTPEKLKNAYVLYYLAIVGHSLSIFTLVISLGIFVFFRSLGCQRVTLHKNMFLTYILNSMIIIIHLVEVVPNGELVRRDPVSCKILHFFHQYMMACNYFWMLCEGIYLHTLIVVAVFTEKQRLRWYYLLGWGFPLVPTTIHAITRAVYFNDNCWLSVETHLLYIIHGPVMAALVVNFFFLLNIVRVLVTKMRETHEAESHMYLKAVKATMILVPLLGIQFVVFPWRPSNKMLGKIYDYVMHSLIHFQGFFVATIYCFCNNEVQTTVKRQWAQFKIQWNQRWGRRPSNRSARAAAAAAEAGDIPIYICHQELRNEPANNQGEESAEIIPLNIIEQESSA
# Columns and labels:
# [1] = biological target: T1, human calcitonin receptor; assay: ratio of hCTR IC50 to hAmylin-R IC50 (reference: human amylin receptor)
# Protocol: The resulting pellet was resuspended, homogenized and centrifuged (20.000 rpm, 15 min) in a buffer containing 20 mM Na-HEPES and 0.1 mM EDTA (pH 7.4, buffer 2). The resulting pellet was resuspended in buffer 2 and protein concentration was measured (BCA protein Assay, Pierce). The homogenate was kept cold during the whole procedure. The membranes were kept at −80° C. until use. The assay was performed in a 384 well Optiplate (PerkinElmer) in a total volume of 40 ul. Membranes were mixed with SPA beads. Final concentration of membranes 35 ng/μL final and SPA beads was 0.05 mg/well. Test-compounds were dissolved in DMSO and further diluted in assay buffer (50 mM Hepes, pH 7.4, 1 mM CaCl2, 5 mM MgCl₂, 0.1% OA and 0.02% Tween20). […] The final mixture was incubated with shaking at 400 rpm for 120 min at 25° C. prior to centrifugation (1500 rpm, 10 min). Samples were analyzed on TopCounter™ (Packard). The IC₅₀ was calculated using (one site binding competition analysis) GraphPad Prism5 as a measure of receptor affinity.
# Membranes were prepared in the following way; the cells were rinsed with PBS and incubated with Versene for approximately 5 min before harvesting. The cells were flushed with PBS and the cell-suspension was centrifuged for 5 min at 1000 rpm. Cells were homogenized (Ultrathurrax) in a buffer containing 20 mM Na-HEPES and 10 mM EDTA (pH 7.4) and centrifuged at 20.000 rpm for 15 min. The resulting pellet was resuspended, homogenized and centrifuged (20.000 rpm, 15 min) in a buffer containing 20 mM Na-HEPES and 0.1 mM EDTA (pH 7.4, buffer 2). The resulting pellet was resuspended in buffer 2 and protein concentration was measured (BCA protein Assay, Pierce). The homogenate was kept cold during the whole procedure. The membranes were kept at −80° C. until use. Assay was performed in a 384 well Optiplate (PerkinElmer) in a total volume of 40 ul. Membranes were mixed with SPA beads.
# [2] = biological target: T1, human calcitonin receptor; assay: SPA competition on BHK cell membranes, 125I-calcitonin as radioligand (Assay VII)
# Protocol: Membranes were prepared in the following way; the cells were rinsed with PBS and incubated with Versene for approximately 5 min before harvesting. The cells were flushed with PBS and the cell-suspension was centrifuged for 5 min at 1000 rpm. Cells were homogenized (Ultrathurrax) in a buffer containing 20 mM Na-HEPES and 10 mM EDTA (pH 7.4) and centrifuged at 20.000 rpm for 15 min. The resulting pellet was resuspended, homogenized and centrifuged (20.000 rpm, 15 min) in a buffer containing 20 mM Na-HEPES and 0.1 mM EDTA (pH 7.4, buffer 2). The resulting pellet was resuspended in buffer 2 and protein concentration was measured (BCA protein Assay, Pierce). The homogenate was kept cold during the whole procedure. The membranes were kept at −80° C. until use. Assay was performed in a 384 well Optiplate (PerkinElmer) in a total volume of 40 ul. Membranes were mixed with SPA beads. Final concentration of membranes 35 ng/μL final and Final concentration of SPA beads was 0.05 mg/well. Test-compounds were dissolved in DMSO and further diluted in assay buffer (50 mM Hepes, pH 7.4, 1 mM CaCl2, 5 mM MgCl₂, 0.1% OA and 0.02% Tween20). […] The final mixture was incubated for 120 min with shaking at 400 rpm at 25° C. prior to centrifugation (1500 rpm, 10 min). Samples were analyzed on TopCounter™ (Packard). The […] was calculated using (one site binding competition analysis) GraphPad Prism5 as a measure of receptor affinity.
Binder,Ratio hCT/hAmylin binding [1],IC50 [2]
"K([AEEA-γGlu-C20 diacid])CNTATCATQRLARFLRHSSPNFGAIPSSTPVGSNTY-NH2 (disulfide 2-7; N-terminus assumed; SMILES CC[C@H](C)[C@H](NC(=O)[C@H](C)NC(=O)CNC(=O)[C@H](Cc1ccccc1)NC(=O)[C@H](CC(N)=O)NC(=O)[C@@H]1CCCN1C(=O)[C@H](CO)NC(=O)[C@H](CO)NC(=O)[C@H](Cc1c[nH]cn1)NC(=O)[C@H](CCCNC(=N)N)NC(=O)[C@H](CC(C)C)NC(=O)[C@H](Cc1ccccc1)NC(=O)[C@H](CCCNC(=N)N)NC(=O)[C@H](C)NC(=O)[C@H](CC(C)C)NC(=O)[C@H](CCCNC(=N)N)NC(=O)[C@H](CCC(N)=O)NC(=O)[C@@H](NC(=O)[C@H](C)NC(=O)[C@@H]1CSSC[C@H](NC(=O)[C@@H](N)CCCCNC(=O)COCCOCCNC(=O)CC[C@H](NC(=O)CCCCCCCCCCCCCCCCCCC(=O)O)C(=O)O)C(=O)N[C@@H](CC(N)=O)C(=O)N[C@@H]([C@@H](C)O)C(=O)N[C@@H](C)C(=O)N[C@@H]([C@@H](C)O)C(=O)N1)[C@@H](C)O)C(=O)N1CCC[C@H]1C(=O)N[C@@H](CO)C(=O)N[C@@H](CO)C(=O)N[C@H](C(=O)N1CCC[C@H]1C(=O)N[C@H](C(=O)NCC(=O)N[C@@H](CO)C(=O)N[C@@H](CC(N)=O)C(=O)N[C@H](C(=O)N[C@@H](Cc1ccc(O)cc1)C(N)=O)[C@@H](C)O)C(C)C)[C@@H](C)O, also called compound 64)",126,56 nM
"K([AEEA-γGlu-C20 diacid])CNTATCATQRLARFLRHSSPNFGAIPSSTNVGSNTY-NH2 (disulfide 2-7; N-terminus assumed; SMILES CC[C@H](C)[C@H](NC(=O)[C@H](C)NC(=O)CNC(=O)[C@H](Cc1ccccc1)NC(=O)[C@H](CC(N)=O)NC(=O)[C@@H]1CCCN1C(=O)[C@H](CO)NC(=O)[C@H](CO)NC(=O)[C@H](Cc1c[nH]cn1)NC(=O)[C@H](CCCNC(=N)N)NC(=O)[C@H](CC(C)C)NC(=O)[C@H](Cc1ccccc1)NC(=O)[C@H](CCCNC(=N)N)NC(=O)[C@H](C)NC(=O)[C@H](CC(C)C)NC(=O)[C@H](CCCNC(=N)N)NC(=O)[C@H](CCC(N)=O)NC(=O)[C@@H](NC(=O)[C@H](C)NC(=O)[C@@H]1CSSC[C@H](NC(=O)[C@@H](N)CCCCNC(=O)COCCOCCNC(=O)CC[C@H](NC(=O)CCCCCCCCCCCCCCCCCCC(=O)O)C(=O)O)C(=O)N[C@@H](CC(N)=O)C(=O)N[C@@H]([C@@H](C)O)C(=O)N[C@@H](C)C(=O)N[C@@H]([C@@H](C)O)C(=O)N1)[C@@H](C)O)C(=O)N1CCC[C@H]1C(=O)N[C@@H](CO)C(=O)N[C@@H](CO)C(=O)N[C@H](C(=O)N[C@@H](CC(N)=O)C(=O)N[C@H](C(=O)NCC(=O)N[C@@H](CO)C(=O)N[C@@H](CC(N)=O)C(=O)N[C@H](C(=O)N[C@@H](Cc1ccc(O)cc1)C(N)=O)[C@@H](C)O)C(C)C)[C@@H](C)O, also called compound 82)",140,88.8 nM

# The next binders have a lower IC50 [2] than those just listed; values first:
Ratio hCT/hAmylin binding [1],IC50 [2],Binder
247,42.4 nM,"K([AEEA-γGlu-C20 diacid])CNTATCATQRLAAFLRHSSPNFGAIPSSTPVGSNTY-NH2 (disulfide 2-7; N-terminus assumed; SMILES CC[C@H](C)[C@H](NC(=O)[C@H](C)NC(=O)CNC(=O)[C@H](Cc1ccccc1)NC(=O)[C@H](CC(N)=O)NC(=O)[C@@H]1CCCN1C(=O)[C@H](CO)NC(=O)[C@H](CO)NC(=O)[C@H](Cc1c[nH]cn1)NC(=O)[C@H](CCCNC(=N)N)NC(=O)[C@H](CC(C)C)NC(=O)[C@H](Cc1ccccc1)NC(=O)[C@H](C)NC(=O)[C@H](C)NC(=O)[C@H](CC(C)C)NC(=O)[C@H](CCCNC(=N)N)NC(=O)[C@H](CCC(N)=O)NC(=O)[C@@H](NC(=O)[C@H](C)NC(=O)[C@@H]1CSSC[C@H](NC(=O)[C@@H](N)CCCCNC(=O)COCCOCCNC(=O)CC[C@H](NC(=O)CCCCCCCCCCCCCCCCCCC(=O)O)C(=O)O)C(=O)N[C@@H](CC(N)=O)C(=O)N[C@@H]([C@@H](C)O)C(=O)N[C@@H](C)C(=O)N[C@@H]([C@@H](C)O)C(=O)N1)[C@@H](C)O)C(=O)N1CCC[C@H]1C(=O)N[C@@H](CO)C(=O)N[C@@H](CO)C(=O)N[C@H](C(=O)N1CCC[C@H]1C(=O)N[C@H](C(=O)NCC(=O)N[C@@H](CO)C(=O)N[C@@H](CC(N)=O)C(=O)N[C@H](C(=O)N[C@@H](Cc1ccc(O)cc1)C(N)=O)[C@@H](C)O)C(C)C)[C@@H](C)O, also called compound 72)"
60.7,36.5 nM,"K([AEEA-γGlu-C20 diacid])CNTATCATQRLANFLRHSSPNFGAIPSSTNVGRNTY-NH2 (disulfide 2-7; N-terminus assumed; SMILES CC[C@H](C)[C@H](NC(=O)[C@H](C)NC(=O)CNC(=O)[C@H](Cc1ccccc1)NC(=O)[C@H](CC(N)=O)NC(=O)[C@@H]1CCCN1C(=O)[C@H](CO)NC(=O)[C@H](CO)NC(=O)[C@H](Cc1c[nH]cn1)NC(=O)[C@H](CCCNC(=N)N)NC(=O)[C@H](CC(C)C)NC(=O)[C@H](Cc1ccccc1)NC(=O)[C@H](CC(N)=O)NC(=O)[C@H](C)NC(=O)[C@H](CC(C)C)NC(=O)[C@H](CCCNC(=N)N)NC(=O)[C@H](CCC(N)=O)NC(=O)[C@@H](NC(=O)[C@H](C)NC(=O)[C@@H]1CSSC[C@H](NC(=O)[C@@H](N)CCCCNC(=O)COCCOCCNC(=O)CC[C@H](NC(=O)CCCCCCCCCCCCCCCCCCC(=O)O)C(=O)O)C(=O)N[C@@H](CC(N)=O)C(=O)N[C@@H]([C@@H](C)O)C(=O)N[C@@H](C)C(=O)N[C@@H]([C@@H](C)O)C(=O)N1)[C@@H](C)O)C(=O)N1CCC[C@H]1C(=O)N[C@@H](CO)C(=O)N[C@@H](CO)C(=O)N[C@H](C(=O)N[C@@H](CC(N)=O)C(=O)N[C@H](C(=O)NCC(=O)N[C@@H](CCCNC(=N)N)C(=O)N[C@@H](CC(N)=O)C(=O)N[C@H](C(=O)N[C@@H](Cc1ccc(O)cc1)C(N)=O)[C@@H](C)O)C(C)C)[C@@H](C)O, also called compound 78)"
